Target: T1, Human TIGIT (human, UniProt Q495A1 22-141)
T1 construct: also called TIGIT antigen; not shown: His tag
T1 sequence: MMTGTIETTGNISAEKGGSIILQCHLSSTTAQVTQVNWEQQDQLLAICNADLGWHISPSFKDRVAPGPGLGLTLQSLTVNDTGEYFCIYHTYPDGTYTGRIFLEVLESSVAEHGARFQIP
Assay: ELISA, plate coated with His-tagged antigen

- EC50: 83.1 pM
B1: 10A7mAb (antibody, human IgG1, kappa, V domains shown)
VH: EVQLVESGGGLTQPGKSLKLSCEASGFTFSSFTMHWVRQSPGKGLEWVAFIRSGSGIVFYADAVRGRFTISRDNAKNLLFLQMNDLKSEDTAMYYCARRPLGHNTFDSWGQGTLVTVSS
VL: DIVMTQSPSSLAVSPGEKVTMTCKSSQSLYYSGVKENLLAWYQQKPGQSPKLLIYYASIRFTGVPDRFTGSGSGTDYTLTITSVQAEDMGQYFCQQGINNPLTFGDGTKLEIKR
notes: anti-TIGIT monoclonal antibody, human IgG1 constant domains, kappa
